Fewer inactive variants are shown than the library holds.

The subject of one series is biotinyl-Leu-oxazolone. Description: self-aminoacylation, catalytic enhancement (BLO) (fold over background); higher = more active; k-Seq, kA / k0A0; sequences stand for … in GGGAAUGGAUCCACAUCUACGAAUUC…UUCACUGCAGACUUGACGAAGCUG
The method in brief: (§1)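 Mutagenized RNA pools with a 21-nt variable region (0.43 μM) reacted with each biotinyl-aminoacyl-oxazolone at 2–1250 μM. Reactions ran in 50 μL HEPES/NaCl/KCl/MgCl2/CaCl2 buffer with 5% acetonitrile, pH 6.9–7.0, for 90 minutes at room temperature. Streptavidin-captured RNA was quantified by triplicate qPCR and Illumina sequencing, and per-sequence fraction reacted was fit to a pseudo-first-order model with 1000 bootstraps. Catalytic enhancement is median kA divided by the uncatalyzed rate, the low-activity peak of a bimodal Gaussian fit.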

Another series deals with biotinyl-Val-oxazolone. The series can be described thus: self-aminoacylation, catalytic enhancement (BVO) (fold over background); higher = more active; k-Seq, kA / k0A0; sequences stand for … in GGGAAUGGAUCCACAUCUACGAAUUC…UUCACUGCAGACUUGACGAAGCUG
The method in brief:
as §1

In another series the test system is biotinyl-Met-oxazolone. The series can be described thus: self-aminoacylation, catalytic enhancement (BMO) (fold over background); higher = more active; k-Seq, kA / k0A0; sequences stand for … in GGGAAUGGAUCCACAUCUACGAAUUC…UUCACUGCAGACUUGACGAAGCUG
The method in brief:
as §1

A further series has as its system biotinyl-Trp-oxazolone. Description: self-aminoacylation, catalytic enhancement (BWO) (fold over background); higher = more active; k-Seq, kA / k0A0; sequences stand for … in GGGAAUGGAUCCACAUCUACGAAUUC…UUCACUGCAGACUUGACGAAGCUG
The method in brief:
as §1

The next series concerns biotinyl-Ile-oxazolone. The series can be described thus: self-aminoacylation, catalytic enhancement (BIO) (fold over background); higher = more active; k-Seq, kA / k0A0; sequences stand for … in GGGAAUGGAUCCACAUCUACGAAUUC…UUCACUGCAGACUUGACGAAGCUG
The procedure, abridged: as §1

Another series has as its system biotinyl-Phe-oxazolone. The series can be described thus: self-aminoacylation, catalytic enhancement (BFO) (fold over background); higher = more active; k-Seq, kA / k0A0; sequences stand for … in GGGAAUGGAUCCACAUCUACGAAUUC…UUCACUGCAGACUUGACGAAGCUG
The procedure, abridged:
as §1

Take “CCACCGUUCAAGCAAUCGGUC [Fam1B.1 aminoacylation ribozyme variant]”: the self-aminoacylation was 0.983 with biotinyl-Leu-oxazolone; 1.41 in the series with biotinyl-Val-oxazolone; 0.827 with biotinyl-Met-oxazolone; 1.11 in the series on biotinyl-Trp-oxazolone; 1 in the series with biotinyl-Ile-oxazolone; 1.27 in the series on biotinyl-Phe-oxazolone.

For “CCACGCUACAAGCAAUCGGUC [Fam1B.1 aminoacylation ribozyme variant]”, the self-aminoacylation with biotinyl-Leu-oxazolone is 0.851; in the series on biotinyl-Val-oxazolone it was 0.999; with biotinyl-Met-oxazolone, 0.858; in the series on biotinyl-Trp-oxazolone, 1.2; in the series on biotinyl-Ile-oxazolone, 0.937; in the series on biotinyl-Phe-oxazolone, 1.3.

Consider “CCACGCUCCAAGCAAUCGGUC [Fam1B.1 aminoacylation ribozyme variant]”, for which the self-aminoacylation came to 1.11 in the series on biotinyl-Leu-oxazolone; 1.47 in the series with biotinyl-Val-oxazolone; 1.07 with biotinyl-Met-oxazolone; 9.91 with biotinyl-Trp-oxazolone; 1.13 in the series on biotinyl-Ile-oxazolone; 12.6 in the series on biotinyl-Phe-oxazolone.

On to “CCACGCUUAAAGCAAUCGGUC [Fam1B.1 aminoacylation ribozyme variant]”, for which the self-aminoacylation in the series with biotinyl-Leu-oxazolone stood at 0.752; with biotinyl-Val-oxazolone it was 1.02; with biotinyl-Met-oxazolone it was 0.741; in the series with biotinyl-Trp-oxazolone, 0.646; in the series on biotinyl-Ile-oxazolone, 0.96; in the series with biotinyl-Phe-oxazolone it was 0.884.

Regarding “CCACGCUUCAAGAAAUCGGUC [Fam1B.1 aminoacylation ribozyme variant]”, the self-aminoacylation was 1.19 in the series on biotinyl-Leu-oxazolone; 0.945 with biotinyl-Val-oxazolone; 0.772 with biotinyl-Met-oxazolone; 8.12 in the series with biotinyl-Trp-oxazolone; 0.895 in the series with biotinyl-Ile-oxazolone; 10.3 in the series with biotinyl-Phe-oxazolone.

For “CCACGCUUCAAGCAAUCCGUC [Fam1B.1 aminoacylation ribozyme variant]”, the self-aminoacylation was 0.648 with biotinyl-Leu-oxazolone; 1.1 with biotinyl-Val-oxazolone; 0.507 in the series on biotinyl-Met-oxazolone; 1.07 in the series with biotinyl-Trp-oxazolone; 0.754 in the series with biotinyl-Ile-oxazolone; 1.34 in the series with biotinyl-Phe-oxazolone.

Take “CCACGCUUCAAGCAAUCGGUU [Fam1B.1 aminoacylation ribozyme variant]”: the self-aminoacylation in the series on biotinyl-Leu-oxazolone came to 1.92; in the series with biotinyl-Val-oxazolone, 1.93; in the series on biotinyl-Met-oxazolone it was 1.44; in the series with biotinyl-Trp-oxazolone, 16.7; in the series with biotinyl-Ile-oxazolone, 1.33; with biotinyl-Phe-oxazolone it was 20.

Turning to “CCACGCUUCAAGCAGUCGGUC [Fam1B.1 aminoacylation ribozyme variant]”, the self-aminoacylation in the series with biotinyl-Leu-oxazolone worked out at 0.887; in the series with biotinyl-Val-oxazolone, 1.33; with biotinyl-Met-oxazolone, 1.03; in the series with biotinyl-Trp-oxazolone, 0.91; in the series on biotinyl-Ile-oxazolone, 0.755; in the series with biotinyl-Phe-oxazolone, 1.

With “CCACGCUUCAAGCGAUCGGUC [Fam1B.1 aminoacylation ribozyme variant]”, the self-aminoacylation in the series on biotinyl-Leu-oxazolone amounted to 1.05; in the series with biotinyl-Val-oxazolone, 1.2; in the series with biotinyl-Met-oxazolone, 1.14; with biotinyl-Trp-oxazolone, 3.3; in the series with biotinyl-Ile-oxazolone it was 0.888; in the series with biotinyl-Phe-oxazolone, 2.6.

“CCACGCUUCAGGCAAUCGGUC [Fam1B.1 aminoacylation ribozyme variant]”: the self-aminoacylation with biotinyl-Leu-oxazolone was determined as 1.39; with biotinyl-Val-oxazolone, 1.77; with biotinyl-Met-oxazolone, 1.35; in the series on biotinyl-Trp-oxazolone it was 1.35; in the series on biotinyl-Ile-oxazolone, 1.22; in the series on biotinyl-Phe-oxazolone it was 1.41.

On to “CCACGCUUUAAGCAAUCGGUC [Fam1B.1 aminoacylation ribozyme variant]”, for which the self-aminoacylation with biotinyl-Leu-oxazolone was found to be 0.682; with biotinyl-Val-oxazolone, 0.787; in the series with biotinyl-Met-oxazolone it was 0.713; in the series with biotinyl-Trp-oxazolone, 0.998; with biotinyl-Ile-oxazolone it was 0.737; in the series with biotinyl-Phe-oxazolone, 1.27.

As to “CCACUCCAAACAAUCGGUCUG [Fam1A.1 aminoacylation ribozyme variant]”, the self-aminoacylation with biotinyl-Leu-oxazolone amounted to 1.09; with biotinyl-Val-oxazolone, 1.22; in the series with biotinyl-Met-oxazolone, 1.13; in the series on biotinyl-Trp-oxazolone, 3.48; in the series with biotinyl-Ile-oxazolone, 1.11; in the series with biotinyl-Phe-oxazolone, 4.18.

On to “CCACUCGUCAAGCAAUCGGUC [Fam1B.1 aminoacylation ribozyme variant]”, for which the self-aminoacylation came out at 1.35 with biotinyl-Leu-oxazolone; 1.58 in the series with biotinyl-Val-oxazolone; 1.18 in the series with biotinyl-Met-oxazolone; 0.864 in the series on biotinyl-Trp-oxazolone; 1.15 in the series with biotinyl-Ile-oxazolone; 0.586 with biotinyl-Phe-oxazolone.

Turning to “CCACUCUGCAAGCAAUCGGUC [Fam1B.1 aminoacylation ribozyme variant]”, the self-aminoacylation in the series on biotinyl-Leu-oxazolone was 1; in the series on biotinyl-Val-oxazolone it was 1.41; with biotinyl-Met-oxazolone it was 1.06; with biotinyl-Trp-oxazolone, 1.09; in the series on biotinyl-Ile-oxazolone, 1.24; in the series with biotinyl-Phe-oxazolone it was 1.11.

Turning to “CCACUCUUCAAACAAUCGGUC [Fam1B.1 aminoacylation ribozyme variant]”, the self-aminoacylation with biotinyl-Leu-oxazolone was determined as 2.04; with biotinyl-Val-oxazolone, 1.3; in the series on biotinyl-Met-oxazolone, 1.44; with biotinyl-Trp-oxazolone, 41.8; with biotinyl-Ile-oxazolone it was 1.23; in the series with biotinyl-Phe-oxazolone, 78.3.

Turning to “CCACUCUUCAAGAAAUCGGUC [Fam1B.1 aminoacylation ribozyme variant]”, the self-aminoacylation in the series on biotinyl-Leu-oxazolone is 0.903; with biotinyl-Val-oxazolone it was 0.871; in the series with biotinyl-Met-oxazolone, 0.91; in the series on biotinyl-Trp-oxazolone, 4.87; in the series on biotinyl-Ile-oxazolone it was 0.932; in the series with biotinyl-Phe-oxazolone, 5.4.

“CCACUCUUCAAGCAAUAGGUC [Fam1B.1 aminoacylation ribozyme variant]”: the self-aminoacylation was found to be 0.669 in the series on biotinyl-Leu-oxazolone; 0.668 in the series with biotinyl-Val-oxazolone; 0.558 with biotinyl-Met-oxazolone; 0.484 in the series with biotinyl-Trp-oxazolone; 0.784 with biotinyl-Ile-oxazolone; 0.921 in the series on biotinyl-Phe-oxazolone.

With “CCACUCUUCAAGCAAUCGGUU [Fam1B.1 aminoacylation ribozyme variant]”, the self-aminoacylation was 1.16 in the series with biotinyl-Leu-oxazolone; 1.6 with biotinyl-Val-oxazolone; 1.53 in the series on biotinyl-Met-oxazolone; 2.27 in the series with biotinyl-Trp-oxazolone; 1.53 with biotinyl-Ile-oxazolone; 2.51 with biotinyl-Phe-oxazolone.

For “CCACUUAAAACAAUCGGUCUG [Fam1A.1 aminoacylation ribozyme variant]”, the self-aminoacylation came to 1.05 with biotinyl-Leu-oxazolone; 1.13 in the series on biotinyl-Val-oxazolone; 1.44 in the series on biotinyl-Met-oxazolone; 1.12 in the series with biotinyl-Trp-oxazolone; 1.11 in the series on biotinyl-Ile-oxazolone; 0.816 in the series with biotinyl-Phe-oxazolone.

Consider “CCACUUCAAACAAUCGGACUG [Fam1A.1 aminoacylation ribozyme variant]”, for which the self-aminoacylation was 1.26 in the series with biotinyl-Leu-oxazolone; 1.1 with biotinyl-Val-oxazolone; 1.03 in the series on biotinyl-Met-oxazolone; 14.9 in the series with biotinyl-Trp-oxazolone; 0.9 in the series on biotinyl-Ile-oxazolone; 22.6 with biotinyl-Phe-oxazolone.

With “CCACUUCAAACAAUCGUUCUG [Fam1A.1 aminoacylation ribozyme variant]”, the self-aminoacylation in the series on biotinyl-Leu-oxazolone stood at 0.653; in the series with biotinyl-Val-oxazolone it was 0.674; in the series with biotinyl-Met-oxazolone, 0.479; in the series with biotinyl-Trp-oxazolone it was 1.09; in the series with biotinyl-Ile-oxazolone, 0.582; in the series with biotinyl-Phe-oxazolone it was 2.21.

For the sequence “CCACUUCAAAGAAUCGGUCUG [Fam1A.1 aminoacylation ribozyme variant]”, the self-aminoacylation worked out at 1.32 in the series with biotinyl-Leu-oxazolone; 1.13 in the series with biotinyl-Val-oxazolone; 1.04 with biotinyl-Met-oxazolone; 8.92 in the series on biotinyl-Trp-oxazolone; 1.15 in the series with biotinyl-Ile-oxazolone; 11.4 in the series with biotinyl-Phe-oxazolone.

For “CCACUUCGAACAAUCGGUCUG [Fam1A.1 aminoacylation ribozyme variant]”, the self-aminoacylation in the series with biotinyl-Leu-oxazolone came out at 1.41; with biotinyl-Val-oxazolone, 1.24; in the series on biotinyl-Met-oxazolone it was 1.77; in the series with biotinyl-Trp-oxazolone it was 1.32; in the series with biotinyl-Ile-oxazolone, 1.15; in the series on biotinyl-Phe-oxazolone it was 1.26.

On to “CCAGACGUCAAGCAAUCGGUC [Fam1B.1 aminoacylation ribozyme variant]”, for which the self-aminoacylation in the series on biotinyl-Leu-oxazolone was 1.99; in the series with biotinyl-Val-oxazolone it was 1.99; in the series with biotinyl-Met-oxazolone it was 1.52; with biotinyl-Trp-oxazolone, 0.65; with biotinyl-Ile-oxazolone, 1.24; with biotinyl-Phe-oxazolone, 0.503.

For “CCAGACUCCAAGCAAUCGGUC [Fam1B.1 aminoacylation ribozyme variant]”, the self-aminoacylation with biotinyl-Leu-oxazolone was 1.23; in the series with biotinyl-Val-oxazolone, 1.23; in the series on biotinyl-Met-oxazolone, 1.17; with biotinyl-Trp-oxazolone, 1.48; in the series on biotinyl-Ile-oxazolone, 1.22; with biotinyl-Phe-oxazolone, 2.16.

The values above are taken from the supplement of paper PMC9233669.
